The supplement of paper PMC10567573

B1: KCNA4 (parent)
chain: YQLGEEALLKFREDEGFVREEEDR

Variants of: B1
Assay: protein stability index of a GFP-peptide fusion (GPS, HEK-293T) (PSI 1-6); higher = more stable
Details: c terminus: a fixed tail appended
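Also: lentivirally expressed fusions sorted by FACS into six bins by GFP to DsRed ratio, PSI derived from sequencing read proportions per bin multiplied by bin number.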

Protein stability index, by site and new letter:
F17: E 4.79, Q 4.5, V 4.53, I 4.3, M 3.69, H 4.71, G 4.01, S 4.56, W 4.59, D 4.81, L 4.61, K 4.51
R19: Y 4.51, S 4.22, P 4.62, W 4.4, D 4.76, Q 4.42, T 4.65, K 4.05, F 4.87, V 4.59, L 4.46, I 4.36, M 4.62, C 4.91, H 4.77, G 4.85, E 4.91
E21: V 4.29, F 4.06, G 4.43, M 4.21, R 3.05, C 3.71, S 4.71, W 3.5, L 3.07, Y 4, Q 4.21, K 4.08, I 4.07
R24: M 4.88, A 4.69, V 4.73, Q 4.71, H 4.83, F 4.27, P 5.16, C 4.21, E 5.1, Y 4.42, K 4.66, L 4.54, I 4.6, N 4.72
D14: E 4.18, R 3.58, N 3.98, T 3.98, S 3.56, A 3.32, P 3.16, I 4, M 4.27, Q 3.88, F 3.78, G 3.45, C 4, K 3.45, V 3.39, L 4.08, W 2.81, H 3.64
L9: H 4.96, D 5.87, V 5.15, S 5.05, C 4.92, T 5.15, G 5.03, Y 5.09, K 4.57, Q 4.9, F 4.36, I 5, W 4.01
F11: V 5.35, Q 5.1, C 4.63, E 5.67, I 5.12, R 5.8, K 5.48, T 5.27, S 5.44, D 5.83, A 4.72, P 5.57, L 5.38
E13: H 3.96, Y 4.02, P 4.22, L 4.45, W 2.39, I 3.32, V 3.81, C 2.42, D 4.11, K 4, Q 4.3, N 4.5, A 3.23, M 3.84
E15: C 3.86, D 4.15, T 3.73, Q 4.4, M 3.96, Y 4.3, S 4.09, F 3.83, H 3.87, N 4.42, R 4.15, G 4.42, W 3.84
V18: D 4.83, T 4.54, C 4.53, N 4.82, H 4.36, E 4.67, K 4.13, Y 4.63, F 4.36, P 4.63, A 4.16, S 4.32, Q 4.78, I 4.5, M 4.58
L3: K 5.02, N 5.68, H 5.22, Y 5.23, Q 5.62, C 4.38, M 3.76, A 5.22, E 5.67, S 4.86, R 4.75
E20: M 4.06, R 4.1, K 4.13, G 3.93, F 3.64, C 4.05, N 4.61, D 4.38, I 3.4, P 4.3, A 3.63, L 3.9, Q 4.44, T 4.56, V 4.14, H 4.49
K10: S 4.43, I 3.35, H 4.74, T 4.57, W 2.25, F 1.64, G 5.52, Y 3.94, C 3.37, Q 4.83, N 5.07, E 5.37, L 3.1
R12: Y 4.59, P 5.62, K 4.92, V 3.81, W 2.34, C 3.02, N 5.17, T 3.98, S 4.66, D 5.54, E 5.21, G 5.08, Q 4.59
E22: M 4.92, T 4.11, S 4.02, C 4.32, Y 3.58, P 4.16, L 3.99, K 3.99, H 4.37, W 4.01, I 4.03, F 3.82, D 4.65, N 3.85, A 4.75, V 4.13
L8: N 5.5, Y 5.21, A 4.93, K 5.04, E 5.5, R 5.13, T 4.88, C 4.98, P 5.13, F 4.43, I 5.21, D 5.6, V 5.58, G 5.48, S 5.47
Q2: V 4.21, Y 4.31, K 5.7, R 5.09, T 5.31, F 4.15, G 5.23, M 4.79, P 5.15, S 5.61, W 4.19, H 2.94, A 5.36, C 4.91, L 4.24
E6: N 4.43, L 3.32, A 4.31, T 4.32, F 2.4, I 2.93, R 3.46, Q 4.23, W 1.97, C 3.51, P 4.92, G 4.32, V 2.93, S 4.67, M 3.99, H 4.33
Y1: I 5.3, Q 5.41, D 5.79, F 4.45, C 5.21, H 5.47, N 5.67, K 5.6, T 5.57, P 5.63, G 5.95
G16: E 4.84, W 4.12, L 4.85, N 4.47, Y 4.04, R 4.08, A 4.65, V 4.5, T 4.58, Q 4.73, P 4.62, D 5.21, F 4.31
E5: I 3.55, G 3.87, K 3.3, S 4.38, H 3.76, L 3.83, A 3.65, T 4.2, R 3.48, P 4.11, W 1.63, N 4.22
D23: T 4.11, C 4.48, P 3.82, N 4.05, W 3.51, G 3.88, S 4.62, R 4.39, Q 4.04, V 3.7, E 4.75, M 3.76
G4: K 5.34, P 5.03, Q 5.08, V 5.11, I 4.83, A 5.24, Y 4.57, H 4.8, S 3.81, M 5.27, W 4.4, C 4.51, T 4.12, F 4.28, D 4.43, L 4.41, E 5.77
A7: H 4.56, D 4.23, M 4.14, E 4.38, K 5.36, F 4.43, Y 4.27, T 4.95, R 4.62, W 1.48, Q 4.1, P 4.59
